The labels stand for the following.
B1: 6X His/T7-tagged PERK luminal domain (PERK-LD) (domain or fragment, UniProt Q9Z2B5 29-510, looked up)
chain: VAPARSLLAPASETVFGLGAAAAPTSAARVPAVATAEVTVEDAEALPAAAGEPESRATEPDDDVELRPRGRSLVIISTLDGRIAALDAENDGKKQWDLDVGSGSLVSSSLSKPEVFGNKMIIPSLDGDLFQWDRDRESMEAVPFTVESLLESSYKFGDDVVLVGGKSLITYGLSAYSGKLRYICSALGCRRWDSDEMEEEEDILLLQRTQKTVRAVGPRSGSEKWNFSVGHFELRYIPDMETRAGFIESTFKPGGNKEDSKIISDVEEQEATMLDTVIKVSVADWKVMAFSRKGGRLEWEYQFCTPIASAWLVRDGKVIPISLFDDTSYTASEEALGDEEDIVEAARGATENSVYLGMYRGQLYLQSSVRVSEKFPTSPKALESVNGENAIIPLPTIKWKPLIHSPSRTPVLVGSDEFDKCLSNDKYSHEEYSNGALSILQYPYDNGYYLPYYKRERNKRSTQITVRFLDSPHYSKNIRKKD
B2: PERK LD (protein)
chain: AGRARGLPAPTAEAAFGLGAAAAPTSATRVPAAGAVAAAEVTVEDAEALPAAAGEQEPRGPEPDDETELRPRGRSLVIISTLDGRIAALDPENHGKKQWDLDVGSGSLVSSSLSKPEVFGNKMIIPSLDGALFQWDQDRESMETVPFTVESLLESSYKFGDDVVLVGGKSLTTYGLSAYSGKVRYICSALGCRQWDSDEMEQEEDILLLQRTQKTVRAVGPRSGNEKWNFSVGHFELRYIPDMETRAGFIESTFKPNENTEESKIISDVEEQEAAIMDIVIKVSVADWKVMAFSKKGGHLEWEYQFCTPIASAWLLKDGKVIPISLFDDTSYTSNDDVLEDEEDIVEAARGATENSVYLGMYRGQLYLQSSVRISEKFPSSPKALESVTNENAIIPLPTIKWKPLIHSPSRTPVLVGSDEFDKCLSNDKFSHEEYSNGALSILQYPYDNGYYLPYYKRERNKRSTQITVRFLDNPHYNKNIRKKD
B3: His-tagged CNPY2 wild type (natural protein, UniProt Q9QXT0 21-182, looked up)
chain: RRSQDLHCGACRALVDELEWEIARVDPKKTIQMGSFRINPDGSQSVVEVPYARSEAHLTELLEEVCDRMKEYGEQIDPSTHRKNYVRVVSRNGESSELDLQGIRIDSDISGTLKFACESIVEEYEDELIEFFSREADNVKDKLCSKRTDLCDHALHRSHDEL
B4: His-tagged CNPY2 3C-A mutant (C28A, C31A, C86A) (natural protein, UniProt Q9QXT0 21-182, looked up)
chain: B3 chain with C8A, C11A, C66A

Changes are numbered by the printed parent chain. Names and notes keep the numbering of the source.

Holding throughout (experiment): ITC
(In general: In ITC the heat of successive injections is recorded.)

Test [1] deals with B4.
The target in test [2] is B3.
Test [3] deals with T1, CNPY2 (UniProt Q9Y2B0).
T1 chain: B3 chain with R24Q, V65I, S90G, R157I

The target in test [4] is T2, CNPY2 (UniProt Q9Y2B0).
T2 chain: B3 chain with C8A, C11A, R24Q, V65I, C66A, S90G, R157I

Test [5] addresses B1.

We go through four molecules from article PMC6102046 (Nature structural & molecular biology, 2017).

Broadly, the stoichiometry N is a count of units in the complex or per binding partner. For B1, the “stoichiometry N” value in test [1] came out at 1.04; in test [2], 1.16.
As usually defined, the Kd is the free concentration of one partner at which half of the binding sites on the other are occupied at equilibrium, for simple one-to-one binding. On to B2, for which the values for the Kd in test [3] and in test [4] were 13.2 µM and 7.5 µM, respectively.
Take B3: binding in test [5] was characterised by a dissociation constant (Kd) of 13.2 µM.
In turn, B4 showed a Kd in test [5] of 7.5 µM.
